The chains are these.
B1: Azoarcus group I ribozyme (parent)
chain: GUGCCUUGCGCCGGGAAACCACGCAAGGGAUGGUGUCAAAUUCGGCGAAACCUAAGCGCCCGCCCGGGCGUAUGGCAACGCCGAGCCAAGCUUCGGCGCCUGCGCCGAUGAAGGUGUAGAGACUAGACGGCACCCACCUAAGGCAAACGCUAUGGUGAAGGCAUAGUCCAGGGAGUGGCGAAAGUCACACAAACCGG

Variants of B1 are the subject of the data set. As to the kind of experiment: reverse-splicing fitness (ratio to wild type); higher = more active; in vitro selection; Mg2+ level not given. In a few lines:
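An in vitro group I ribozyme library with randomized positions was T7-transcribed and gel-purified. In triplicate, 10 pmol RNA in EPPS pH 7.5 was reacted with 50 pmoles of a 30-nt RNA substrate for 1 h at 37 °C across several added MgCl2 levels (1–48 mM), then stopped with EDTA. Products were reverse transcribed from a substrate-complementary primer, PCR-amplified and sequenced (HiSeq 4000). Fitness is a variant's read proportion after selection over that before, normalised to wild type.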
In the case of GUGCCUUGCGCCGGGAAACCACGCAAGGGAUGGUGUCAAAUUCGGCGAAACCUAAGCGCCCGCCCGGGCGUAUGGCAACGCGGAGCCAAGCUUCGGCGCCUGCGCCGAUGCAGGUGUAGCGACUAGACGGCACCCACCUAAGGCCAACGGUAUGGUGAAGGCAUAGUCGAGGGAGUGGCGAAAGUCACACAAACCGG, the reverse-splicing fitness was determined as 0.00653. With GUGCCUUGCGCCGGGAAACCACGCAAGGGAUGGUGUCAAAUUCGGCGAAACCUAAGCGCCCGCCCGGGCGUAUGGCAACGCCGAGCCAAGCUUCGGCGCCUGCGCCGAUGUAGGUGUAGGGACUAGACGGCACCCACCUAAGGCGAACGAUAUGGUGAAGGCAUAGUCUAGGGAGAGGCGAAAGUCACACAAACCGG the figure was 0.0247. With GUGCCUUGCGCCGGGAAACCACGCAAGGGAUGGUGUCAAAUUCGGCGAAACCUAAGCGCCCGCCCGGGCGUAUGGCAACGCCGAGCCAAGCUUCGGCGCCUGCGCCGAUGCAGGUGUAGUGACUAGACGGCACCCACCUAAGGCCAACGGUAUGGUGAAGGCAUAGUCCAGGGAGUGGCGAAAGUCACACAAACCGG the figure was 0.0809. With GUGCCUUGCGCCGGGAAACCACGCAAGGGAUGGUGUCAAAUUCGGCGAAACCUAAGCGCCCGCCCGGGCGUAUGGCAACGCGGAGCCAAGCUUCGGCGCCUGCGCCGAUGUAGGUGUAGUGACUAGACGGCACCCACCUAAGGCCAACGUUAUGGUGAAGGCAUAGUCCAGGGAGAGGCGAAAGUCACACAAACCGG the figure was 0.00477; with GUGCCUUGCGCCGGGAAACCACGCAAGGGAUGGUGUCAAAUUCGGCGAAACCUAAGCGCCCGCCCGGGCGUAUGGCAACGCCGAGCCAAGCUUCGGCGCCUGCGCCGAUGGAGGUGUAGAGACUAGACGGCACCCACCUAAGGCAAACGUUAUGGUGAAGGCAUAGUCUAGGGAGUGGCGAAAGUCACACAAACCGG, 0.112. Take GUGCCUUGCGCCGGGAAACCACGCAAGGGAUGGUGUCAAAUUCGGCGAAACCUAAGCGCCCGCCCGGGCGUAUGGCAACGCGGAGCCAAGCUUCGGCGCCUGCGCCGAUGCAGGUGUAGAGACUAGACGGCACCCACCUAAGGCUAACGCUAUGGUGAAGGCAUAGUCCAGGGAGAGGCGAAAGUCACACAAACCGG: the reverse-splicing fitness was 0.138. With GUGCCUUGCGCCGGGAAACCACGCAAGGGAUGGUGUCAAAUUCGGCGAAACCUAAGCGCCCGCCCGGGCGUAUGGCAACGCGGAGCCAAGCUUCGGCGCCUGCGCCGAUGAAGGUGUAGAGACUAGACGGCACCCACCUAAGGCCAACGAUAUGGUGAAGGCAUAGUCAAGGGAGGGGCGAAAGUCACACAAACCGG the figure was 0.00515; with GUGCCUUGCGCCGGGAAACCACGCAAGGGAUGGUGUCAAAUUCGGCGAAACCUAAGCGCCCGCCCGGGCGUAUGGCAACGCGGAGCCAAGCUUCGGCGCCUGCGCCGAUGUAGGUGUAGGGACUAGACGGCACCCACCUAAGGCCAACGUUAUGGUGAAGGCAUAGUCGAGGGAGAGGCGAAAGUCACACAAACCGG, 0.023. Then GUGCCUUGCGCCGGGAAACCACGCAAGGGAUGGUGUCAAAUUCGGCGAAACCUAAGCGCCCGCCCGGGCGUAUGGCAACGCGGAGCCAAGCUUCGGCGCCUGCGCCGAUGGAGGUGUAGUGACUAGACGGCACCCACCUAAGGCUAACGGUAUGGUGAAGGCAUAGUCCAGGGAGUGGCGAAAGUCACACAAACCGG, with 0.00894.

For GUGCCUUGCGCCGGGAAACCACGCAAGGGAUGGUGUCAAAUUCGGCGAAACCUAAGCGCCCGCCCGGGCGUAUGGCAACGCAGAGCCAAGCUUCGGCGCCUGCGCCGAUGCAGGUGUAGCGACUAGACGGCACCCACCUAAGGCGAACGAUAUGGUGAAGGCAUAGUCCAGGGAGAGGCGAAAGUCACACAAACCGG, the reverse-splicing fitness amounted to 0.00956. Then GUGCCUUGCGCCGGGAAACCACGCAAGGGAUGGUGUCAAAUUCGGCGAAACCUAAGCGCCCGCCCGGGCGUAUGGCAACGCAGAGCCAAGCUUCGGCGCCUGCGCCGAUGGAGGUGUAGGGACUAGACGGCACCCACCUAAGGCCAACGCUAUGGUGAAGGCAUAGUCUAGGGAGGGGCGAAAGUCACACAAACCGG, with 0.00388; and GUGCCUUGCGCCGGGAAACCACGCAAGGGAUGGUGUCAAAUUCGGCGAAACCUAAGCGCCCGCCCGGGCGUAUGGCAACGCUGAGCCAAGCUUCGGCGCCUGCGCCGAUGUAGGUGUAGAGACUAGACGGCACCCACCUAAGGCUAACGGUAUGGUGAAGGCAUAGUCAAGGGAGGGGCGAAAGUCACACAAACCGG, with 0.00684; and GUGCCUUGCGCCGGGAAACCACGCAAGGGAUGGUGUCAAAUUCGGCGAAACCUAAGCGCCCGCCCGGGCGUAUGGCAACGCUGAGCCAAGCUUCGGCGCCUGCGCCGAUGGAGGUGUAGAGACUAGACGGCACCCACCUAAGGCGAACGUUAUGGUGAAGGCAUAGUCUAGGGAGCGGCGAAAGUCACACAAACCGG, with 0.0132. Consider GUGCCUUGCGCCGGGAAACCACGCAAGGGAUGGUGUCAAAUUCGGCGAAACCUAAGCGCCCGCCCGGGCGUAUGGCAACGCGGAGCCAAGCUUCGGCGCCUGCGCCGAUGGAGGUGUAGUGACUAGACGGCACCCACCUAAGGCAAACGAUAUGGUGAAGGCAUAGUCGAGGGAGCGGCGAAAGUCACACAAACCGG, for which the reverse-splicing fitness came to 0.00399. Then GUGCCUUGCGCCGGGAAACCACGCAAGGGAUGGUGUCAAAUUCGGCGAAACCUAAGCGCCCGCCCGGGCGUAUGGCAACGCGGAGCCAAGCUUCGGCGCCUGCGCCGAUGCAGGUGUAGGGACUAGACGGCACCCACCUAAGGCAAACGUUAUGGUGAAGGCAUAGUCCAGGGAGCGGCGAAAGUCACACAAACCGG, with 0.0217.

The record behind these values is the RNAGym collection of RNA variant scans (doi:10.1093/molbev/msab373).
